Experimental findings from doi:10.1101/630269 are described below.

The target of this assay is Dendritic cell-specific ICAM-3 grabbing non-integrin (DC-SIGN, CD209) (human) (UniProt Q9NNX6). Description: virion-cell binding assay.
Chain of UniProt Q9NNX6 (Q9NNX6 whole entry): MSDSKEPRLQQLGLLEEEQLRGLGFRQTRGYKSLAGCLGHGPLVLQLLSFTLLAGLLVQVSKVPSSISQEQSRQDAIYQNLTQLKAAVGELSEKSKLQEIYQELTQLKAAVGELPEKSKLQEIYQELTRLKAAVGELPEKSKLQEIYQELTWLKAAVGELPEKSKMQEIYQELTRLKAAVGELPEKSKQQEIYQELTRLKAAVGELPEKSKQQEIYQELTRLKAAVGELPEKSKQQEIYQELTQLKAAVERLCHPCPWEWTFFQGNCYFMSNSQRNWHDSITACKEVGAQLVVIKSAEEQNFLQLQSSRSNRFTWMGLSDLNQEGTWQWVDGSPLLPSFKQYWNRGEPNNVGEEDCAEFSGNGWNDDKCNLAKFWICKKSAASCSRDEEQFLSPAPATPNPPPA

For the substance “EBOV Makona glycoprotein GP-V82 (natural protein)”, the fold binding relative to GP-A82 came out at 2 fold.
